Measurements reported in the Human Domainome abundance scans (Beltran et al. 2025).
± gives the uncertainty stated by the source.

B1: Far upstream element-binding protein 2, residues 142 to 214; numbered along this chain, Q92945 (parent)
chain: RTSMTEEYRVPDGMVGLIIGRGGEQINKIQQDSGCKVQISPDSGGLPERSVSLTGAPESVQKAKMMLDDIVSR

Variants of: B1
Assay: abundance fitness (aPCA) (normalised: wild type 0, dead -1); higher = more abundant; growth selection in yeast, the domain comes from the species named
Conditions: Homo sapiens

Variant	abundance fitness
D32W	-0.243 ± 0.057
D32P	-1.1 ± 0.11
D32F	-0.364 ± 0.14
D32A	-0.006 ± 0.05
P41N	-0.141 ± 0.083
P41T	-0.05 ± 0.056
P41Y	-0.099 ± 0.092
P41G	-0.055 ± 0.044
P41H	0.035 ± 0.091
P41S	-0.017 ± 0.049
P41R	-0.061 ± 0.043
R73E	-0.013 ± 0.055
R73S	0.055 ± 0.06
R73D	0.021 ± 0.076
R21N	0.074 ± 0.069
R21T	-0.004 ± 0.043
R21G	-0.043 ± 0.036
R21A	0.026 ± 0.039
V60L	-0.191 ± 0.047
V60Y	-0.763 ± 0.18
V60N	-0.636 ± 0.1
V60S	-0.741 ± 0.06
N27E	-0.006 ± 0.078
N27I	-0.109 ± 0.086

Variant	abundance fitness
N27Q	-0.018 ± 0.053
N27H	-0.094 ± 0.077
N27L	-0.076 ± 0.043
S72E	0.007 ± 0.054
S72A	0.016 ± 0.046
S72I	-0.086 ± 0.069
V15S	-0.219 ± 0.053
V15W	-0.081 ± 0.063
V15F	-0.076 ± 0.088
V15M	0.035 ± 0.073
V15R	-0.335 ± 0.05
V15L	0.068 ± 0.05
L67M	-0.055 ± 0.053
L67F	-0.41 ± 0.072
L67K	-0.582 ± 0.056
L67S	-0.553 ± 0.048
L67P	-0.652 ± 0.064
L67I	0.041 ± 0.069
L67V	-0.327 ± 0.043
A63V	-0.748 ± 0.062
A63Y	-0.811 ± 0.29
A63C	-0.222 ± 0.082
A63R	-0.865 ± 0.054
A63P	-0.648 ± 0.066

Variant	abundance fitness
G23P	-0.314 ± 0.059
G23L	-0.169 ± 0.049
G23N	-0.241 ± 0.12
G23V	-0.257 ± 0.047
G23C	-0.212 ± 0.065
G23M	-0.141 ± 0.07
G23A	-0.149 ± 0.048
S40W	-0.207 ± 0.055
S40I	-0.069 ± 0.095
S40C	-0.057 ± 0.067
S40Q	0.009 ± 0.055
Q25P	-0.264 ± 0.052
Q25V	-0.019 ± 0.053
Q25T	0.022 ± 0.058
Q25E	0.004 ± 0.053
Q25G	0.005 ± 0.037
Q25K	-0.158 ± 0.068
S43P	-0.083 ± 0.044
S43F	-0.328 ± 0.088
S43H	-0.113 ± 0.065
S43I	-0.098 ± 0.086
A56V	-0.099 ± 0.051
A56Q	-0.1 ± 0.063
A56C	0.088 ± 0.074

Variant	abundance fitness
A56I	-0.126 ± 0.11
A56S	-0.008 ± 0.052
G55V	-1.17 ± 0.072
G55N	-0.922 ± 0.25
G55T	-0.732 ± 0.075
G55C	-0.818 ± 0.1
V10E	-0.456 ± 0.051
V10K	-0.603 ± 0.067
V10W	-0.726 ± 0.073
G34V	-0.96 ± 0.061
G34I	-0.877 ± 0.2
G34L	-0.396 ± 0.057
G34C	-0.356 ± 0.077
Q61T	-0.018 ± 0.053
Q61H	-0.196 ± 0.11
Q38G	-0.172 ± 0.042
Q38K	-0.068 ± 0.067
Q38D	-0.112 ± 0.075
Q38I	-0.038 ± 0.11
Q38P	-0.831 ± 0.069
S59N	-0.062 ± 0.097
S59V	-0.326 ± 0.046
S59R	-0.373 ± 0.039
S59H	-0.081 ± 0.063

Variant	abundance fitness
S59C	-0.063 ± 0.057
S59A	0.008 ± 0.043
S59L	-0.619 ± 0.049
S52M	0.047 ± 0.06
S52L	0.059 ± 0.041
S52G	-0.249 ± 0.04
S52W	0.01 ± 0.05
L17A	0.016 ± 0.047
L17C	-0.118 ± 0.08
L17K	-0.059 ± 0.056
L17H	-0.087 ± 0.084
L17Q	-0.028 ± 0.059
L17T	0.045 ± 0.053
L17G	-0.023 ± 0.043
R9P	0.041 ± 0.05
R9I	0.055 ± 0.076
R9Y	0.025 ± 0.066
R9N	0.078 ± 0.076
R9Q	0.137 ± 0.05
R9K	0.119 ± 0.057
I26M	-0.054 ± 0.086
I26F	-0.492 ± 0.11
I26D	-0.549 ± 0.082
I26Y	-0.769 ± 0.23

Variant	abundance fitness
I26W	-0.215 ± 0.11
R1P	-0.27 ± 0.11
R1F	-0.297 ± 0.19
R1M	0.19 ± 0.07
R1A	-0.205 ± 0.068
T5G	-0.485 ± 0.039
T5A	-0.248 ± 0.042
T5Q	-0.117 ± 0.045
T5S	-0.11 ± 0.039
T5Y	-0.248 ± 0.075
T5N	-0.16 ± 0.07
T5D	-0.319 ± 0.055
D12P	0.051 ± 0.053
D12S	0.054 ± 0.048
D12Q	-0.039 ± 0.058
D12G	-0.04 ± 0.047
D12H	0.013 ± 0.076
M4W	-0.15 ± 0.049
M4S	-0.072 ± 0.046
M4K	0.029 ± 0.056
Q31H	-0.005 ± 0.087
Q31T	0.015 ± 0.057
Q31I	-0.135 ± 0.097
Q31Y	-0.166 ± 0.13

Variant	abundance fitness
Q30K	-0.181 ± 0.065
Q30N	-0.455 ± 0.11
Q30V	-0.132 ± 0.044
Q30E	-0.067 ± 0.053
G22E	-0.071 ± 0.055
G22M	-0.115 ± 0.062
G22H	-0.234 ± 0.084
G22Q	-0.026 ± 0.055
K64P	-0.687 ± 0.07
K64A	-0.558 ± 0.045
K64I	-0.275 ± 0.075
S50C	0.043 ± 0.071
S50L	-0.067 ± 0.045
I18L	0.035 ± 0.042
I18T	-0.282 ± 0.052
I18V	-0.158 ± 0.041
I18K	-0.333 ± 0.052
I18S	-0.398 ± 0.046
I18Q	-0.346 ± 0.054
I18M	-0.17 ± 0.055
K28Y	-0.337 ± 0.14
K28I	-0.269 ± 0.11
K28D	-0.431 ± 0.083
K28T	-0.209 ± 0.064

Variant	abundance fitness
E58V	-0.209 ± 0.051
E58D	-0.035 ± 0.088
E58R	-0.198 ± 0.039
V71A	-0.142 ± 0.046
V71Q	-0.296 ± 0.06
V71M	-0.037 ± 0.061
V71D	-0.458 ± 0.073
V71G	-0.294 ± 0.039
V71L	0.001 ± 0.046
L46C	0.031 ± 0.06
L46A	-0.056 ± 0.051
L46I	-0.145 ± 0.07
L46M	-0.033 ± 0.055
R49S	-0.026 ± 0.052
R49D	-0.386 ± 0.088
R49Q	-0.08 ± 0.057
R49P	-0.067 ± 0.059
R49K	-0.092 ± 0.063
D69Q	-0.097 ± 0.061
D69E	-0.002 ± 0.052
D69I	-0.262 ± 0.09
D69K	-0.043 ± 0.064
D69H	-0.165 ± 0.075
D69Y	-0.27 ± 0.09

Variant	abundance fitness
D68W	-0.62 ± 0.054
D68K	-0.098 ± 0.053
D68F	-0.469 ± 0.081
D68G	-0.144 ± 0.039
D68E	-0.06 ± 0.049
D68M	-0.337 ± 0.054
M65K	0.067 ± 0.059
M65N	0.017 ± 0.076
M65R	-0.023 ± 0.037
M65C	0.011 ± 0.061
K62G	-0.51 ± 0.043
K62I	-0.126 ± 0.085
K62H	-0.231 ± 0.07
K62C	-0.288 ± 0.062
K62W	-0.541 ± 0.053
K62E	-0.286 ± 0.057
D42G	-0.097 ± 0.042
D42N	-0.069 ± 0.092
D42W	-0.203 ± 0.055
D42T	0.007 ± 0.053
I70C	-0.141 ± 0.067
I70K	-0.395 ± 0.062
E7P	-0.137 ± 0.047
E7K	-0.115 ± 0.048

Variant	abundance fitness
E7Q	0.017 ± 0.05
E7N	-0.109 ± 0.066
E7L	0.021 ± 0.04
E7Y	0.028 ± 0.063
L53D	-0.72 ± 0.1
L53A	-0.817 ± 0.056
L53Q	-0.784 ± 0.083
G45C	-0.168 ± 0.064
G45S	-0.113 ± 0.05
G45Q	-0.1 ± 0.063
G16V	-0.619 ± 0.048
G16F	-0.499 ± 0.1
G16C	-0.334 ± 0.06
G16L	-0.495 ± 0.049
S3Q	0.124 ± 0.047
S3I	0.137 ± 0.067
S3V	0.144 ± 0.039
S3L	0.074 ± 0.041
V51A	-0.503 ± 0.045
V51R	-0.944 ± 0.054
V51E	-0.84 ± 0.076
V51Y	-0.5 ± 0.1
V37W	-0.916 ± 0.064
V37P	-0.62 ± 0.065

Variant	abundance fitness
V37C	-0.144 ± 0.068
V37Q	-0.811 ± 0.081
V37A	-0.372 ± 0.048
V37I	-0.014 ± 0.07
M66N	-0.688 ± 0.13
M66K	-0.462 ± 0.066
M66A	-0.185 ± 0.045
P11T	-0.158 ± 0.056
P11E	-0.193 ± 0.056
K36H	-0.06 ± 0.074
K36F	-0.32 ± 0.081
K36M	-0.03 ± 0.059
K36T	0.005 ± 0.056
K36P	-0.918 ± 0.07
K36Y	-0.047 ± 0.11
K36I	-0.095 ± 0.074
K36C	-0.182 ± 0.059
K36V	-0.001 ± 0.043
Y8D	-0.477 ± 0.057
Y8T	-0.214 ± 0.048
Y8G	-0.576 ± 0.036
I19L	0.008 ± 0.045
I19K	-0.01 ± 0.072
I19C	-0.114 ± 0.078

Variant	abundance fitness
I19R	-0.091 ± 0.044
I19W	-0.144 ± 0.07
I19N	-0.029 ± 0.097
I19E	-0.103 ± 0.076
I19F	-0.098 ± 0.083
M14V	-0.094 ± 0.042
M14N	-0.148 ± 0.069
M14A	-0.111 ± 0.042
M14D	-0.209 ± 0.06
S33V	-0.714 ± 0.053
S33G	-0.861 ± 0.049
S33F	-0.474 ± 0.092
S33A	-0.138 ± 0.044
S33D	-0.916 ± 0.096
T2V	0.004 ± 0.048
T2C	-0.198 ± 0.08
T2S	0.071 ± 0.046
T2R	-0.169 ± 0.04
T2Y	-0.016 ± 0.11
T54M	-0.182 ± 0.062
T54S	-0.059 ± 0.045
T54A	-0.255 ± 0.047
T54G	-0.586 ± 0.049
T54Q	-0.158 ± 0.06

Variant	abundance fitness
I29V	-0.185 ± 0.041
I29R	-0.995 ± 0.046
I29F	-0.682 ± 0.11
I29P	-0.849 ± 0.071
I29Y	-0.971 ± 0.11
I29K	-0.787 ± 0.078
I39G	-0.648 ± 0.047
I39E	-0.728 ± 0.076
I39D	-0.515 ± 0.09
I39A	-0.457 ± 0.05
I39R	-0.645 ± 0.044
G13Q	0.09 ± 0.051
G13F	-0.184 ± 0.091
G13N	0.18 ± 0.062
G13K	0.066 ± 0.055
E6N	-0.255 ± 0.069
E6L	0.07 ± 0.042
E6F	-0.1 ± 0.073
E6Q	0.045 ± 0.053
E24F	-0.03 ± 0.086
E24N	-0.106 ± 0.11
E24P	-0.797 ± 0.071
E48F	-0.109 ± 0.075
E48A	-0.063 ± 0.043

Variant	abundance fitness
E48T	0.006 ± 0.048
E48Q	-0.038 ± 0.059
E48S	-0.024 ± 0.045
E48H	-0.007 ± 0.076
G20P	-0.576 ± 0.053
G20N	-0.389 ± 0.1
G20K	-0.401 ± 0.062
G44L	-0.125 ± 0.048
G44R	-0.071 ± 0.04
G44E	0.008 ± 0.054
G44M	0.007 ± 0.069
G44W	-0.338 ± 0.06
C35K	-0.545 ± 0.071
C35A	-0.029 ± 0.046
C35T	-0.406 ± 0.058
C35M	-0.866 ± 0.082
C35Y	-0.847 ± 0.12
P47I	-0.168 ± 0.079
P47V	-0.146 ± 0.057
P57S	-0.245 ± 0.05
P57I	-0.289 ± 0.099
P57L	-0.316 ± 0.049
